Source: patent publication US20180201654A1, “PEPTIDE INHIBITORS OF HAUSP DEUBIQUITINASE” (priority 2012, published 2018)

B1: vIRF4^153-256 (protein)
chain: SDTREQSYEEAGAAAPAPPKAPSGLRGRPRKSNRYYNVGDITTEQKAACSVWIPVNEGASTSGMGSSGTRQVTQASSFTWRVPGDPPAPSTLTGPSDPHSSGAG
B2: vIRF4^153-216 (protein)
chain: SDTREQSYEEAGAAAPAPPKAPSGLRGRPRKSNRYYNVGDITTEQKAACSVWIPVNEGASTSGM

Key:
[1] = biological target: T1, HAUSP TRAF domain HAUSP^62-205 (Homo sapiens, UniProt Q93009); assay type: binding; set-up: All residues of HAUSP^62-205, with the exception of Asp^62, are included in the final model; hexahistidine tag (TEV-cleavable) (cleaved yes); made in house; host or cells: E. coli BL21 (DE3) RIPL; conditions: for Ka / TΔS / ΔG: ITC, 20° C., pH 7.0
Procedure: FIG. 5. Typical isothermal titration calorimetric measurements of the interactions between the HAUSP TRAF domain and the vIRF4 protein derivatives or other peptides. Purified proteins and synthesized peptides were reconstituted in 150 mM NaCl and 10 mM HEPES (pH 7.0). The calorimetric assays were performed using a VPITC system. All experiments were carried out with a stirring speed of 300 rpm at 20° C., and the thermal power was recorded every 10 s. Data were analyzed using the ORIGIN software package (version 7.0). […] Each titration against the HAUSP TRAF domain is indicated in each panel.
Purified proteins and synthesized peptides (Peptron Inc., Deajeon, Korea) were reconstituted in 150 mM NaCl and 10 mM HEPES (pH 7.0). The calorimetric assays were performed using a VP-ITC system (MicroCal Inc., Northampton, Mass.). Samples were degassed by vacuum aspiration for 15 min prior to loading. All experiments were carried out with a stirring speed of 300 rpm at 20° C., and the thermal power was recorded every 10 s. Data were analyzed using the ORIGIN software package (version 7.0) supplied with the instrument. […] (SEQ ID NO: 6); EBNA1^435-449, […] (SEQ ID NO: 7); MDM2^137-152, […] […] (SEQ ID NO: 10). Each set of ITC experiments was repeated two or three times.

[2] = biological target: T1, HAUSP TRAF domain HAUSP^62-205; test: Size exclusion chromatography of complex formation in excess MDM2^137-152; assay type: binding; set-up: hexahistidine tag (TEV-cleavable) (cleaved yes); made in house; host or cells: E. coli BL21 (DE3) RIPL; conditions: in the presence of a 5-fold molar excess of MDM2^137-152

T1 sequence (Q93009 62-205): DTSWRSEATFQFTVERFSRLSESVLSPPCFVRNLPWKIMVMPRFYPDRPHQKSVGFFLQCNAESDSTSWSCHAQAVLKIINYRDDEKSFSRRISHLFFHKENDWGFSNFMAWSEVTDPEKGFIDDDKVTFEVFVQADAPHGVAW

Row | Molecule | Ka [1] | TΔS [1] [kcal/mol] | ΔG [1] [kcal/mol] | complex formation with the TRAF domain [2] | TRAF binding affinity (in words) ([1]; ITC comparison)
1 | B1 | 13.20 ± 0.85 10^6 M^−1 | -10.05 | -7.64 | – | –
2 | B2 | 1.84 ± 0.10 10^6 M^−1 | -7.35 | -8.41 | formed a stable complex | comparable TRAF binding affinity
